B1: SoYbgC (S. oneidensis YbgC) (Shewanella oneidensis MR-1) (protein)
chain: MTFNWPISVYYEDTDAGGVVYHSNYLNFFERARTEWLKALGVSQTALLADDTAFVVKRAELDFKKAARFEQNLIVETKVIELKKASLVFHQRLVDHLGDCYCEGTVLVACVALSRMRPRAIPLNIVQEFDSAS
B2: SoYbgC (S. oneidensis YbgC) (Shewanella oneidensis MR-1; D15N) (protein)
chain: MTFNWPISVYYEDTNAGGVVYHSNYLNFFERARTEWLKALGVSQTALLADDTAFVVKRAELDFKKAARFEQNLIVETKVIELKKASLVFHQRLVDHLGDCYCEGTVLVACVALSRMRPRAIPLNIVQEFDSAS

Assays:
Assay in all cases: purified protein
Type in all cases: biochemical, Shewanella oneidensis
Settings in all cases: 25 °C, 200 mM sodium phosphate, pH 7.5 in table title, pH 7.0 in methods
purified protein [1] = substrate: CC(=O)SCCNC(=O)CCNC(=O)[C@H](O)C(C)(C)COP(=O)(O)OP(=O)(O)OC[C@H]1O[C@@H](n2cnc3c(N)ncnc32)[C@H](O)[C@@H]1OP(=O)(O)O
purified protein [2] = substrate: CCC(=O)SCCNC(=O)CCNC(=O)[C@H](O)C(C)(C)COP(=O)(O)OP(=O)(O)OC[C@H]1O[C@@H](n2cnc3c(N)ncnc32)[C@H](O)[C@@H]1OP(=O)(O)O
purified protein [3] = substrate: CCCC(=O)SCCNC(=O)CCNC(=O)[C@H](O)C(C)(C)COP(=O)(O)OP(=O)(O)OC[C@H]1O[C@@H](n2cnc3c(N)ncnc32)[C@H](O)[C@@H]1OP(=O)(O)O
purified protein [4] = substrate: CCCCCCCC(=O)SCCNC(=O)CCNC(=O)[C@H](O)C(C)(C)COP(=O)(O)OP(=O)(O)OC[C@H]1O[C@@H](n2cnc3c(N)ncnc32)[C@H](O)[C@@H]1OP(=O)(O)O

Protein	Km (purified protein [1]) [µM]	kcat (purified protein [1]) [s⁻¹]	kcat/Km (purified protein [1]) [M⁻¹ s⁻¹]	Km (purified protein [2]) [µM]	kcat (purified protein [2]) [s⁻¹]	kcat/Km (purified protein [2]) [M⁻¹ s⁻¹]	Km (purified protein [3]) [µM]	kcat (purified protein [3]) [s⁻¹]	kcat/Km (purified protein [3]) [M⁻¹ s⁻¹]	Km (purified protein [4]) [µM]	kcat (purified protein [4]) [s⁻¹]	kcat/Km (purified protein [4]) [M⁻¹ s⁻¹]
B1	3.5 ± 0.4	8 ± 0.7	2.3e+06	4.8 ± 0.6	3.9 ± 5	810000	17 ± 2	1.3 ± 0.1	76000	34 ± 4	0.15 ± 0.01	4400
B2	231 ± 37	–	–	–	–	–	–	–	–	–	–	–
